Reference: publication PMC8443744

Biological target: senataxin (SETX), endogenous (human (endogenous in MRC-5)) (UniProt Q7Z333)
Assay: proximity ligation; Duolink PLA in methanol-fixed MRC-5 cells with antibodies against the two endogenous proteins; cells mock treated (DMSO), 25 uM CPT for 10 min, or 50 uM alpha-amanitin overnight followed by CPT

Chain of UniProt Q7Z333 (Q7Z333 whole entry): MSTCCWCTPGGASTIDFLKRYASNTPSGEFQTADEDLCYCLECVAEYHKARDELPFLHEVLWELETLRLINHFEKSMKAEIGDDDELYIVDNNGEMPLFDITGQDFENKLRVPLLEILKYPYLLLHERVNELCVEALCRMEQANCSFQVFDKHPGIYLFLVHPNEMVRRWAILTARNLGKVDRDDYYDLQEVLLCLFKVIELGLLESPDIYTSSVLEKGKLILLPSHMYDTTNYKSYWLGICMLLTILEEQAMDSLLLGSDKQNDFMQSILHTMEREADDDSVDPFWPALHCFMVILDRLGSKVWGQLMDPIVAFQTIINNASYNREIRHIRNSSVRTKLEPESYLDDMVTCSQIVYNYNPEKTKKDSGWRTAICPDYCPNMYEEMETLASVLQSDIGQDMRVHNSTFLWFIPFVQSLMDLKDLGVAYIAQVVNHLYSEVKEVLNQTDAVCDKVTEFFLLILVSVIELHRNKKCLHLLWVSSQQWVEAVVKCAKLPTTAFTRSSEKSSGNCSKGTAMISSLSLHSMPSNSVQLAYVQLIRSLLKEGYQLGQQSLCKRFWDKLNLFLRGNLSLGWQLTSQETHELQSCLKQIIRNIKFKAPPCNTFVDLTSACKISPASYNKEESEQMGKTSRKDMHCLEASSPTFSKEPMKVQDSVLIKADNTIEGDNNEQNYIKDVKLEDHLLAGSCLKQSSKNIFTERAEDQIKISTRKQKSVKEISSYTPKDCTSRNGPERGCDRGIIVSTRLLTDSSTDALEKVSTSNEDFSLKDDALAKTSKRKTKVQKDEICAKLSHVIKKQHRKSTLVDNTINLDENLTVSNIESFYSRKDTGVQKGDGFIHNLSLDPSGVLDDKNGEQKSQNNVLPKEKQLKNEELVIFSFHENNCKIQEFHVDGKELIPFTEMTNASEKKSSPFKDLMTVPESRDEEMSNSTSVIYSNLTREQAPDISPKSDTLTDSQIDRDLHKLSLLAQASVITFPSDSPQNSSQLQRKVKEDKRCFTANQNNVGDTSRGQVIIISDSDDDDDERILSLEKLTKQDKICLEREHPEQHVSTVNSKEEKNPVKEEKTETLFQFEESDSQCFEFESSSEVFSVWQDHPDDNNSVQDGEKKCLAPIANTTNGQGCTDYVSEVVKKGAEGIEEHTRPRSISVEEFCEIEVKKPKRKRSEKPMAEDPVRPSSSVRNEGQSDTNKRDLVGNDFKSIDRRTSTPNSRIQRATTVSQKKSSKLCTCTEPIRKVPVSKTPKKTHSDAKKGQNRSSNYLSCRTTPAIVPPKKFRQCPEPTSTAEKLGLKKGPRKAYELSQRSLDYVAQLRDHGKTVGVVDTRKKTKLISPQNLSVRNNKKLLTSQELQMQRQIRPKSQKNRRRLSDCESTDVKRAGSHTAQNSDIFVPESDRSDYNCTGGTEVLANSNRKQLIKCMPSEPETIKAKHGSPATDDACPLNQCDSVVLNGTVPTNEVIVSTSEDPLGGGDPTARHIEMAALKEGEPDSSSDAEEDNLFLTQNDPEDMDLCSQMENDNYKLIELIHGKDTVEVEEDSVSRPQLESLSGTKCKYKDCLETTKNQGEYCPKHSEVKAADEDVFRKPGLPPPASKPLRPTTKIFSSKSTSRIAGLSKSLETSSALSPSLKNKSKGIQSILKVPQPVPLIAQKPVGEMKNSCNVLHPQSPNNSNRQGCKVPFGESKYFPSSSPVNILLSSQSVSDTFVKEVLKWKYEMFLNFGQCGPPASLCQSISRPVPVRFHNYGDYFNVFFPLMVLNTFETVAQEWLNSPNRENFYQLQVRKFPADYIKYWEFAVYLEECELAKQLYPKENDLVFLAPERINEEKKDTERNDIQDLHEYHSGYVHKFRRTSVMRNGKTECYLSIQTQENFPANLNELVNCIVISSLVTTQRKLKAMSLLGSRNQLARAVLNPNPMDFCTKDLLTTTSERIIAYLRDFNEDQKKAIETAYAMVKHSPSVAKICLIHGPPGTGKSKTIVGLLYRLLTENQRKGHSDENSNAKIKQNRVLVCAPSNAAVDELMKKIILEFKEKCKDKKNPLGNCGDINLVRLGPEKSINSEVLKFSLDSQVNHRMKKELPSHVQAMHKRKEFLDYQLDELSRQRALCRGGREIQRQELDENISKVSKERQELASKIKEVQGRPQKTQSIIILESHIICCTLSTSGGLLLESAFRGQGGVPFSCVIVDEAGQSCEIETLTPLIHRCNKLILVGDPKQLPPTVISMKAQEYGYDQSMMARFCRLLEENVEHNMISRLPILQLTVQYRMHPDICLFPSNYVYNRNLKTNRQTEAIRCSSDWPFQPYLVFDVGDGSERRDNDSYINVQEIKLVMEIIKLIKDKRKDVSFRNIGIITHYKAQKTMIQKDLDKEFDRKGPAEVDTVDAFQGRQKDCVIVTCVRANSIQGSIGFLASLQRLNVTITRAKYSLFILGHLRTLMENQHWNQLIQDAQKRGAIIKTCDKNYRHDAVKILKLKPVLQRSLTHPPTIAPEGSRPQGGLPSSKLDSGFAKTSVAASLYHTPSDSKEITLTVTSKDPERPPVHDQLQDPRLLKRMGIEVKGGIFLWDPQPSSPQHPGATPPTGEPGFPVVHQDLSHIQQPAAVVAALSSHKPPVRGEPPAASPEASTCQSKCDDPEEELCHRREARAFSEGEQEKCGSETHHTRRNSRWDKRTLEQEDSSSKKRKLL

Work on “ubiquitin specific peptidase 11 (USP11), endogenous (from UniProt P51784 1-963)” yielded a fold increase in PLA signal after CPT (against unperturbed cells) of 5 fold.
